According to the DeepSol protein solubility set:

Test: soluble on expression in E. coli; label from the status in PepcDB or PDB records

Row | Sequence | soluble on expression in E. coli
1 | MYDVAIIGAGVIGCSIFRELTKYDLRVVVLEKEKDVSMGTSKANSAIVHAGYDPEEGTLMAKYNVKGNEMFEELCKELSVPFKRNGSLVLAFDKEDMFKVKHLYENGSKLGVKGLKILNRDEVLKMEPNLNDKIEGALYAPTGGIVGPFEYTIALAENGVTNGGKIKLKKEVVSIKKRDVFKIGTEDGETIEAKFVINAAGVYADKIHNLVCKESFKISPRSGEYFVMDKSQGNVVKHTIFQCPSKLGKGVLITPTVHGNLLVGPDARDVEDKEDVGTVFEGLDYVKEASMRSTKEVNFRESIRNFAGLRANPDTGDFIVEENDEVKGFIDVAGMKSPGLSSAPAIAVDVVNILSSAGCSLKK | not soluble
2 | MEDLLVVGQIINTHGLRGEMKVMPLTEDMRRFDYLEYVILKGKKVKVEGVKYFKDKVILKLEGINSIEEAEKLKRTYLEIEREDAIELEEDEYFIVDLVGCTVVDTEGFEYGKIKDVIQTPSNDVYWVQGKKEVLVPVLKDIVLDINMDEKLITIRPSGEWQYEDLEHHHHHH | not soluble
3 | MSGDDYMGAMALLGIKPDTDPLSIKRAYRRLLSRHHPDKIAGSGANAQQVRVATEKTSELHNAYRVVKARRGFALEHHHHHH | not soluble
4 | MGSDKIHHHHHHMHTCPRCDSKKGEVMSKSPVEGAWEVYQCQTCFFTWRSCEPESITNPEKYNPAFKIDPKETETAIEVPAVPEPKGLIRVNCMSDRLFELLDGSCLNEKQHEAFVLQTVSEDGWPHAAMISAGEIIALSRTDIRIALWKNTMTSANILRTGKAQFTAWWKGAAYYVKLECAPLPPLKDAEYERDRFSCRIVSVKEDVAKYADLTSGVRIQLHSPEEVLSRWKKTLEDLKR | not soluble
5 | MIDLDSLEHIGVLGKPHGVQGECNARLTADLSTLFEEEERLFLFFELDALPVPFRLIGYREKTDDITLLRFAGIESKEEMEQYTGVSLFMERRYFDTDSIEFTWEHFIGFTVFDREGCFVGTIDDVDESTLNVLLSITTPEGKELLLPVAEDLLEEIDVPNRKLTMIIPDGLLQLLEHHHHHH | soluble
6 | MTWFIDRRLNGKNKSMVNRQRFLRRYKAQIKQSISEAINKRSVTDVDSGESVSIPTEDISEPMFHQGRGGLRHRVHPGNDHFVQNDRIERPQGGGGGSGSGQGQASQDGEGQDEFVFQISKDEYLDLLFEDLALPNLKQNQQRQLTEYKTHRAGYTANGVPANISVVRSLQNSLARRTAMTAGKRRELHALEENLAIISNSEPAQLLEEERLRKEIAELRAKIERVPFIDTFDLRYKNYEKRPDPSSQAVMFCLMDVSGSMDQSTKDMAKRFYILLYLFLSRTYKNVEVVYIRHHTQAKEVDEHEFFYSQETGGTIVSSALKLMDEVVKERYNPAQWNIYAAQASDGDNWADDSPLCHEILAKKLLPVVRYYSYIEITRRAHQTLWREYEHLQSTFDNFAMQHIRDQDDIYPVFRELFHKQNATAKGLEHHHHHH | not soluble
7 | MSLSGDLVSLKVVVFDIGNVLLRWDPRLLYRKIFSEENQMEWFLSQVCSEAFNRKLDGGAPFAAAIEALVAQFPDFSKEIRAYDERWLETTSGPIPETFAILEELVAEGVPLYAITNFSYEKFEVARCAFELFDRFDGIVVSGAEGVVKPEAPIYRLLLDRYGLDASDCLFIDDSAANVDGARAVGMQGYHYRDPISLRWKLTECGLLCRKSDLNDKGQVLEKREGHHHHHH | soluble
8 | MKEDEVNRCQIQNWYPRFKSLTIKTKFHKLPESFINYLIDDSGPFLLPHSVTNEDAMPNRVHNFEEEDDFQVPEEASDDEPLNRPSFPELEIEIRESIETLGGTIIPKLNWSSPKDAAWISPSQNLSCTCFNEIALLFRSSDSLTHDLFNAYDSCSDKVSSRPESFYLALRKWYPSLKPEMEFRCFVKSNELVGICQREVTTFYPVLLNEKDLLKGLIEEFFDDKIRFEFESENYTFDVYVTKERRVKLIDFNTWCGSTLPLMYTWEELEKIHGECDELELRIVESRLSVLPGLKTAVPYDYLDVSAGSGWAQVLKIVEEEFQKDDQSSDEVA | soluble
9 | MGSDKIHHHHHHMRVASERLILGDRITESLFLHTDIPIVEAGKKIGADELRRIKRFLIKEVDIEKRPEGMSEASMMDQELDDMIEDSIFDSLIETYNQVFTSWEQGLVPNVYDALRWVKESMPETMRRDDILPYFLERGTEAYTVRHAIYRGAIAQLLAEAAGKERKMIHDLWVASYFADCGLARIMEWRHTKRYEAMQQEIFHRHPAMAFQALQKENIISDTVKRLIVQHHERLDGSGYPLKVKGDKIMDHTRLFIVADVFAAMTSWRPYREAYKVYDAYCHLKARPMQYDSKYVMLLGQLLLPIEPGDRVLMSNGKIATVLRKNSIFDRPVIAYEEHNRRIVKDLMEDRQLNIIQLMD | not soluble
10 | MSLSGKENPNICFLPTATGDADEVIERFYNAKLSENVTHFPLFKFDAGWKETLFEQDIIYVGGGNTRSMLAIWREWGIDRILKQCYEQGIIICGMSAGAICWFEFAVTDSDPEAYQVMRCLGLIDGLAAAHFSHVGEKFEVFQAFARSQPSITCYGIHDYAALHFVDGKLLATVTSFPDAGVLVKTGNDENILRGEGHHHHHH | not soluble
11 | MSALTPPTDMPTPTTDKITQAAMETIYLCKFRVSMDGEWLCLRELDDISLTPDPEPTHEDSWEDLTDLVEQVRADPEDPNYLMANERMNLMNMAKLSIKGLIESALNLGRTLDSDYAPLQQFFVVMEHCLKHGLKAKKTFLGQNKSFWGPLELVEKLVPEAAEITASVKDLPGLKTPVGRGRAWLRLALMQKKLSEYMKALINKKELLSEFYEVNALMMEEEGAIIAGLLVGLNVIDANFCMKGEDLDSQVGVIDFSMYLKDGNSSKGSEGDGQITAILDQKNYVEELNRHLNATVNNLQTKVDLLEKSNTKLTEELAVANNRIITLQEEMERVKEESSYLLESNRKGPKKTELQKGKR | soluble
12 | MRGSHHHHHHGSALSNKFIGDDMKMTYHMDGCVNGHYFTVKGEGNGKPYEGTQTSTFKVTMANGGPLAFSFDILSTVFKYGNRCFTAYPTSMPDYFKQAFPDGMSYERTFTYEDGGVATASWEISLKGNCFEHKSTFHGVNFPADGPVMAKKTTGWDPSFEKMTVCDGILKGDVTAFLMLQGGGNYRCQFHTSYKTKKPVTMPPNHVVEHRIARTDLDKGGNSVQLTEHAVAHITSVVPF | soluble
13 | MGHHHHHHSHDGAEPGRVDTFWYKFLKREPGGELSWEGNGPHHDRCCTYNENNLVDGVYCLPIGHWIEATGHTNEMKHTTDFYFNIAGHQAMHYSRILPNIWLGSCPRQVEHVTIKLKHELGITAVMNFQTEWDIVQNSSGCNRYPEPMTPDTMIKLYREEGLAYIWMPTPDMSTEGRVQMLPQAVCLLHALLEKGHIVYVHCNAGVGRSTAAVCGWLQYVMGWNLRKVQYFLMAKRPAVYIDEEALARAQEDFFQKFGKVRSSVCSL | not soluble
14 | MSDTQQVPAIVILGQGALDTARRVQARYPGALVHGLAGRVEADRSYTDFGDTLRELYCADRPIVALCAAGIVIRSLAPLLQRKGAEPPVLALAEDGSAVVPLLGGLAGVNRLAREIGEVLAVAPAITTSGELRFGTCVLNPPAGYVLADLEQGKRFVADLLGGQPVRVEGAADWLDAARLPRDPEAALAIHVTPSARAPRAEELLIHPRCVLAALEPADAAADAVRQALVDAGLAAAALGGLLADSARMADPRLQAAADALGVPLRFLPQADPAARLRQALPAAEQVGDRLAVAAAPLAMDRIGQRRGRLTVIGLGPGCAELMVPAARRALDEAEDILGYQTYVDMAGPFRAGQVLHGSDNREELQRARHAFELAATGRAVVLVSSGDPGVFAMAAAVLEALHGAGEPAWDAVELRIFPGVSAALATAARAGAPLGHDFCVLSLSDNLKPWEVIERRLDLAGAADLAMAFYNPISRARPWQLGRALEIVARHRSPQTLVVLGRDIGRPGERLLRTTLGELRAEQVDMRTLVIIGSSTTRSFPRADGEAWVYTPRWYPSE | not soluble
15 | MSQYSENIIIGAGAAGLFCAAQLAKLGKSVTVFDNGKKIGRKILMSGGGFCNFTNLEVTPAHYLSQNPHFVKSALARYTNWDFISLVAEQGITYHEKELGQLFCDEGAEQIVEMLKSECDKYGAKILLRSEVSQVERIQNDEKVRFVLQVNSTQWQCKNLIVATGGLSMPGLGATPFGYQIAEQFGIPVIPPRASLVPFTYRETDKFLTALSGISLPVTITALCGKSFYNQLLFTHRGISGPAVLQISNYWQPTESVEIDLLPNHNVEEEINQAKQSSPKQMLKTILVRLLPKKLVELWIEQGIVQDEVIANISKVRVKNLVDFIHHWEFTPNGTEGYRTAEVTMGGVDTKVISSKTMESNQVSGLYFIGEVLDVTGWLGGYNFQWAWSSAYACALSISRQ | soluble
